Reference: patent US20220177587A1, “METHODS AND USES OF VARIANT CD80 FUSION PROTEINS AND RELATED CONSTRUCTS” (Alpine Immune Sciences, Inc., priority 2018, published 2022)
Residue numbers refer to the chain shown, from its start. Names may count otherwise. “And” between values parts separate entries of the source, which are not always exact repeats. Equal entries are not always repeated.

B1: H18R, R29D, Y31L, Q33H, K36G, K37E, M38I, T41A, M43R, M47T, L70Q, E81V, L85R, K89N, A91T, F92P, K93V, R94L, I118V, T120S, T130A, K169E, H188D (protein)
chain: VIHVTKEVKEVATLSCGRNVSVEELAQTDILWHKEGEIVLAMRSGDTNIWPEYKNRTIFDITNNLSIVIQALRPSDEGTYVCVVRKYENDTPVLEHLAEVTLSVKADFPTPSISDFEVPSSNIRRIICSASGGFPEPHLSWLENGEELNAINTTVSQDPETELYAVSSELDFNMTTNHSFMCLIKYGDLRVNQTFNWNTTKQEHFPDN
B2: R29D, Y31L, Q33H, K36G, M38I, T41A, M43R, M47T, L70Q, E81V, L85R, K89N, A91T, F92P, K93V, R94L, T130A, H188D (protein)
chain: B1 chain with R18H, E37K, V118I, S120T, E169K
B3: R29D, Y31L, Q33H, K36G, M38I, T41A, M43R, M47T, L70Q, E81V, L85R, K89N, A91T, F92P, K93V, R94L, I118V, T120S, I127T, T130A, E143G, K169E, M174V, H188D (protein)
chain: B1 chain with R18H, E37K, I127T, E143G, M174V
B4: H18L, R29D, Y31L, Q33H, K36G, M38I, T41A, M43R, M47T, L70Q, E81V, L85R, K89N, A91T, F92P, K93V, R94L, I118V, T120S, T130A, K169E, H188D (protein)
chain: B1 chain with R18L, E37K
B5: R29D, Y31L, Q33H, K36G, M38I, T41A, M43R, M47T, E81V, L85R, K89N, A91T, F92P, K93V, R94L, I118V, T120S, I127T, C128Y, T130A, H188D (protein)
chain: B1 chain with R18H, E37K, Q70L, I127T, C128Y, E169K
B6: R29D, I30V, Y31L, Q33H, K36G, M38I, T41A, M43R, M47T, E81V, L85R, K89N, A91T, F92P, K93V, R94L, I118V, T120S, I127T, T130A, H188D (protein)
chain: B1 chain with R18H, I30V, E37K, Q70L, I127T, E169K
B7: R29D, Y31L, Q33H, K36G, M38I, T41A, M43R, M47T, L85R, K89N, A91T, F92P, K93V, R94L, I118V, T120S, I127T, T130A, K169E, H188D (protein)
chain: B1 chain with R18H, E37K, Q70L, V81E, I127T
B8: R29D, Y31L, Q33H, K36G, M38I, T41A, M43R, M47T, L70Q, E81V, K89N, A91T, F92P, K93V, R94L, I118V, T120S, I127T, T130A (protein)
chain: B1 chain with R18H, E37K, R85L, I127T, E169K, D188H
B9: R29D, Y31L, Q33H, K36G, M38I, T41A, M43R, M47T, E81V, L85R, K89N, A91T, F92P, K93V, R94L, F108L, I118V, T120S, T130A, K169E, H188D (protein)
chain: B1 chain with R18H, E37K, Q70L, F108L
B10: R29D, Y31L, Q33H, K36G, M38I, T41A, M43R, M47T, L70Q, E81V, L85R, K89N, A91T, F92P, K93V, R94L, I118V, T120S, I127T, T130A, K169E (protein)
chain: B1 chain with R18H, E37K, I127T, D188H
B11: R29D, Y31L, Q33H, K36G, M38I, T41A, M43R, M47T, L70Q, E81V, L85R, K89N, A91T, F92P, K93V, R94L, I118V, T120S, T130A, N149D, K169E, H188D (protein)
chain: B1 chain with R18H, E37K, N149D
B12: T13R/C16R/L70Q/A71D: variant CD80 IgV-Fc, IgV SEQ ID NO:155 (protein)
chain: VIHVTKEVKEVARLSRGHNVSVEELAQTRIYWQKEKKMVLTMMSGDMNIWPEYKNRTIFDITNNLSIVIQDLRPSDEGTYECVVLKYEKDAFKREHLAEVTLSVKAD
B13: I30V/T57I/L70P/A71D/A91T: variant CD80 IgV-Fc, IgV SEQ ID NO:159 (protein)
chain: B12 chain with R13T, R16C, I30V, T57I, Q70P, A91T
B14: T57I: variant CD80 IgV-Fc, IgV SEQ ID NO:156 (protein)
chain: B12 chain with R13T, R16C, T57I, Q70L, D71A
B15: E35D/M47I/L65P/D90N: variant CD80 IgV-Fc, IgV SEQ ID NO:167 (protein)
chain: B12 chain with R13T, R16C, E35D, M47I, L65P, Q70L, D71A, D90N
B16: V22I/L70M/A71D: variant CD80 IgV-Fc, IgV SEQ ID NO:160 (protein)
chain: B12 chain with R13T, R16C, V22I, Q70M
B17: A71D: variant CD80 IgV-Fc, IgV SEQ ID NO:170 (protein)
chain: B12 chain with R13T, R16C, Q70L
B18: E81K/A91S: variant CD80 IgV-Fc, IgV SEQ ID NO:172 (protein)
chain: B12 chain with R13T, R16C, Q70L, D71A, E81K, A91S
B19: L25S/E35D/M47I/D90N: variant CD80 IgV-Fc, IgV SEQ ID NO:168 (protein)
chain: B12 chain with R13T, R16C, L25S, E35D, M47I, Q70L, D71A, D90N
B20: V22L/M38V/M47I/A71D/L85M: variant CD80 IgV-Fc, IgV SEQ ID NO:158 (protein)
chain: B12 chain with R13T, R16C, V22L, M38V, M47T, Q70L, L85M
B21: M43I/C82R: variant CD80 IgV-Fc, IgV SEQ ID NO:157 (protein)
chain: B12 chain with R13T, R16C, M43I, Q70L, D71A, C82R

Test system: human pan T cells
Experiment: Anti-CD3 coimmobilization assay, IFN-gamma
Type: cell-based
Conditions: Table E34; culture supernatant, 3 days
In short: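 IFN-gamma in 3-day culture supernatants, quantified by ELISA, reflects costimulation. Human pan T cells or BC3 clone (100,000/well, Ex-Vivo 15) were placed on wells pre-adsorbed overnight with rCD80.Fc variants (1–80 nM) together with anti-CD3 OKT3 (1 nM or 4 nM), unbound protein removed.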

| Molecule | Anti-CD3 IFN-gamma Coimmobilization Assay |
| --- | --- |
| B1 | 305 pg/mL |
| B2 | 213 pg/mL |
| B3 | 291 pg/mL |
| B4 | 157 pg/mL |
| B5 | 278 pg/mL |
| B6 | 127 pg/mL and 237 pg/mL |
| B7 | 231 pg/mL |
| B8 | 226 pg/mL |
| B9 | 165 pg/mL |
| B10 | 203 pg/mL |
| B11 | 118 pg/mL |

Molecular target: CD28 (Homo sapiens, UniProt P10747)
Experiment: Jurkat/IL2 reporter assay: blockade of CD28 costimulation (plate-bound anti-CD3/CD86-Fc)
Type: cell-based
Design: host or cells: Jurkat cells expressing an IL-2-luciferase reporter
Conditions: Table E5; protein diluted to 40 nM before mixing with cells; 5 hours
Procedure: The day before the assay, the assay plate was prepared. […] The plate was incubated overnight at 4° C. to allow the antibody and CD86-Fc protein to adhere to the surface of the plate. The next day, the wells of the assay plate were washed twice with 150 μL PBS prior to the assay.
Jurkat effector cells expressing IL-2-luciferase reporter were counted and resuspended in assay buffer to a concentration of 2×10^6 cells/mL. 60 μL of the Jurkat cell suspension were then added to the wells containing the CD80-Fc fusion molecules or controls. The cells and CD80 proteins were incubated at room temperature for 15 minutes and then 100 μL of the cell/CD80 protein mixture were transferred/well of the prepared anti-CD3/CD86-Fc assay plate.
The assay plate was briefly spun down (10 seconds at 1200 RPM) and incubated at 37° C. for 5 hours. After the 5 hour incubation, the plate was removed and equilibrated to room temperature for 15 minutes. 100 μL of Bio-Glo (Promega) were added/well of the assay plate, which was then placed on an orbital shaker for 10 minutes. Luminescence was measured with a 1 second per well integration time using a BioTek Cytation 3 luminometer.

| Average Relative Luminescence Units | Molecule |
| --- | --- |
| 3204 Relative Luminescence Units | B12 |
| 1731 Relative Luminescence Units | B13 |
| 1463 Relative Luminescence Units | B14 |
| 2377 Relative Luminescence Units | B15 |
| 253 Relative Luminescence Units | B16 |
| 999 Relative Luminescence Units | B17 |
| 4038 Relative Luminescence Units | B18 |
| 2567 Relative Luminescence Units | B19 |
| 1770 Relative Luminescence Units | B20 |
| 1326 Relative Luminescence Units | B21 |
